These results are taken from the supplement of paper PMC10126150.

± gives the standard deviation of the averaged measurements.
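Note: ATP exposure 15 min at 22 °C before imaging.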

The subject of this data set is ATP. Put plainly: switch fluorescence ratio, 500 uM ATP over buffer (Cy3 cluster intensity, sum of 5 cycles each) (fold (ratio)); higher = stronger signal-on switching upon ATP binding; sequences stand for … in TCGTCGGCAGCGTCAGATGTGTATAAGAGACAGTTTTTTTTTTTTTTTTTTTTTTTTT…TC. Particulars: aptamer strand: ATP DNA aptamer (quencher-CACCTGGGGGAGTATTGCGGAGGAAGG + anchor), 100 nM annealed; ATP concentration: 500 uM. In short, it runs like this: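 For every switch-domain sequence, the fluorescence ratio is the mean of per-cluster values, each being summed target-cycle Cy3 intensity over summed buffer-cycle Cy3 intensity. Clusters outside 100-1000 RFU were excluded. On a modified Illumina MiSeq flow-cell, the Cy3-labelled switching-strand clusters were annealed to 100 nM quencher-labelled ATP aptamer, imaged in selection buffer and then after 15 min with 500 uM ATP at 22 °C. Five such cycles were run, with NaOH stripping and re-annealing between them.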
Consider AAATGTTTAA, for which the switch fluorescence ratio came to 1.01 ± 0.019.

Turning to GGGAAAGAAC, the switch fluorescence ratio amounted to 1.15 ± 0.2. The same measure for GCCATGCGTC: 1.01 ± 0.026. Next, TTTTAAATAG: 1.01 ± 0.024; AAGTACGGCC: 1.16 ± 0.025; CGTTGGTGTC: 0.9921 ± 0.0085.

For the sequence CAGTTCATGA, the switch fluorescence ratio was 1.01 ± 0.027. On to AGGGGGGGT, for which the switch fluorescence ratio is 1.05 ± 0.077. AATGGTAGAA: the switch fluorescence ratio amounted to 0.986 ± 0.048. The same measure for AAGAGAGGGA: 0.981 ± 0.041. On to ATGGGGGAGG, for which the switch fluorescence ratio is 1.009 ± 0.0031. Next, GGGTTAACCT: 1.06 ± 0.075; AGTTAGTATG: 0.979 ± 0.032. The same measure for CAGGGGAGGT: 1.02 ± 0.014; for TGGGAGAAAT: 2.39 ± 2.4.

Turning to ATTTATTTTA, the switch fluorescence ratio is 1.01 ± 0.012. Next, TCATTGGTTT: 0.998 ± 0.032; GCCGCGGGAG: 1.096 ± 0.0063.

As for GGGCTGGGTC, the switch fluorescence ratio was 0.98 ± 0.038.

For GTTTTAGCGG, the switch fluorescence ratio worked out at 0.964 ± 0.027. The same measure for TTTGAGTAGG: 0.992 ± 0.038. Next, GAATCTTGCG: 0.95976 ± 0.00094; CAGGGACGGA: 1.02 ± 0.017; AACATTTTGC: 0.9941 ± 0.0069. The same measure for GGGGGTCCGC: 1.022 ± 0.0071. Turning to TTTCGGCCAA, the switch fluorescence ratio is 1.62 ± 0.76.

On to TAAGGTCATA, for which the switch fluorescence ratio came out at 1.034 ± 0.0067.

For GATAGTTTTT, the switch fluorescence ratio is 0.985 ± 0.03. Next, TTCCTTTTGT: 1.29 ± 0.43; CATATTTGCC: 1.03 ± 0.059; TACATGTCGT: 0.996 ± 0.018. Next, TCGAGGGCAG: 1.01 ± 0.029; ATTAGAAAAA: 0.904 ± 0.019; CTAATTTAGG: 1 ± 0.018.

Turning to GAGTTGGGTC, the switch fluorescence ratio turned out to be 1.02 ± 0.021. The same measure for GGCTGAGTTA: 1.021 ± 0.0025; for GCTTTTAAAG: 1.04 ± 0.02. The same measure for CTATGGCTGG: 0.981 ± 0.017. Consider GCGACAAGCT, for which the switch fluorescence ratio was determined as 0.997 ± 0.015. Next, TATGGAGCCA: 1.02 ± 0.032. Turning to TTCTGTTAGA, the switch fluorescence ratio was determined as 1 ± 0.012. Next, AGTTGAGCAA: 1.29 ± 0.048; GGACTTGGTC: 0.972 ± 0.019. The same measure for GAGTTACGGC: 1.22 ± 0.26. The same measure for TTCGGATTGG: 1.01 ± 0.0061; for GATTTTTATC: 1.023 ± 0.0031; for CCCGACAGCC: 1.97 ± 0.3.

As for TGGCGGTGGC, the switch fluorescence ratio stood at 0.9806 ± 0.006.

On to ACCTCACTTT, for which the switch fluorescence ratio was determined as 1.303 ± 0.005. Turning to CAGAAGGGAG, the switch fluorescence ratio is 0.98 ± 0.01. Next, AGGCTACATA: 1.03 ± 0.019; GTGGGAAGGG: 0.996 ± 0.017.

For CGAATCTTTT, the switch fluorescence ratio was determined as 1.013 ± 0.0025. The same measure for TGAATGGGTA: 0.983 ± 0.019; for GTTTGGGGGT: 1.04 ± 0.12; for AGCCGGGGGC: 1.004 ± 0.002.

In the case of CTCGCAGGGG, the switch fluorescence ratio came out at 1.37 ± 0.2. With TTTGTTAGAT, the switch fluorescence ratio amounted to 0.993 ± 0.022. The same measure for CTTTATAATC: 0.986 ± 0.026. The same measure for TTGGGATGCC: 1.08 ± 0.17; for GCCTTGATGT: 1.01 ± 0.032. In the case of TGAGGGGATG, the switch fluorescence ratio turned out to be 0.994 ± 0.023. Next, CGGGGCTTTG: 0.982 ± 0.025; TGGACTTATA: 1.02 ± 0.012.

Take TATGTACGCA: the switch fluorescence ratio amounted to 1.11 ± 0.018. The same measure for TCGTGGGGTT: 1.02 ± 0.012; for TTTCGGGCTG: 0.984 ± 0.015; for GGGGAGGTGT: 1.05 ± 0.066.

GCTAAAGGCA: the switch fluorescence ratio is 0.986 ± 0.043. The same measure for GTTTAAGGGT: 0.996 ± 0.055. The same measure for ACTTTTTGGG: 1.01 ± 0.065; for GGCAGGGGAA: 1.01 ± 0.012. The same measure for TCGTTGATGT: 1 ± 0.049; for AAATTGTTTT: 1.01 ± 0.019.

For CCCCACTTGC, the switch fluorescence ratio worked out at 1.32 ± 0.11.

Consider GTATTAAAAG, for which the switch fluorescence ratio stood at 1 ± 0.049. The same measure for TTTGATTCTT: 1.004 ± 0.0033. Next, CTGCAAGCGG: 1.28 ± 0.057. The same measure for GTGGGGTACA: 0.996 ± 0.049; for GACCGGGCTC: 0.97643 ± 0.00079. GGGCTTTAAT: the switch fluorescence ratio worked out at 0.992 ± 0.015. Next, TTTTTGATTA: 0.986 ± 0.062; GAGTTTGTCC: 0.998 ± 0.012; TGTGTGTGTT: 1.02 ± 0.03. Next, GGCGATTTTG: 0.958 ± 0.03; CTGTTTGCCT: 0.983 ± 0.021; GATTCTCAAG: 0.9746 ± 0.0056. The same measure for GAGGAAAGCG: 1.04 ± 0.089.

As for GGCCTAAAGG, the switch fluorescence ratio was found to be 1.005 ± 0.0082.

As for CGGAAGGGGA, the switch fluorescence ratio was 1.05 ± 0.027.

As to CATATCACAT, the switch fluorescence ratio came out at 1.024 ± 0.0062. Next, CGTTCTTGTC: 1.05 ± 0.047; TTAAAGCACT: 1.19 ± 0.2. Next, TAGTTTTCGC: 1 ± 0.031; AAGGTTGGTT: 0.983 ± 0.068. The same measure for GGGGTAGCCC: 0.9977 ± 0.004; for AAAGGAGAGG: 1.01 ± 0.05. As for GAGCACGGGT, the switch fluorescence ratio is 1.04 ± 0.053.

On to CGAGTTAAGC, for which the switch fluorescence ratio amounted to 0.965 ± 0.02. Consider GCTCTCGGTG, for which the switch fluorescence ratio came to 1.01 ± 0.017. The same measure for AAATCATTAA: 1.02 ± 0.018. Next, CCACGAAGAT: 1.061 ± 0.0037; GTGCCTTAGG: 0.99797 ± 0.00039; ATGTTAGTTG: 0.965 ± 0.041. For the sequence ATTTGTGTA, the switch fluorescence ratio was determined as 0.992 ± 0.012. The same measure for TCGCAATGTT: 3.58 ± 1; for TTAGCCGTTG: 1.03 ± 0.015; for TATTCGCCCA: 1.11 ± 0.2. Next, CGAAAAAAGA: 1.05 ± 0.12; TTAATGTGAT: 1 ± 0.012; TTCGTACAGC: 1.04 ± 0.036.

On to AGAGCGGGCT, for which the switch fluorescence ratio worked out at 1.04 ± 0.036.

For the sequence TAACACCGGC, the switch fluorescence ratio came to 1.06 ± 0.025.

With TGAATCGTTT, the switch fluorescence ratio amounted to 0.937 ± 0.043.

As for GGTTGGAAAG, the switch fluorescence ratio came to 0.9919 ± 0.0013. With TGTTTCAATT, the switch fluorescence ratio was found to be 1.02 ± 0.021. Next, GTGGGGTGTT: 0.985 ± 0.02; AACGTTTGTT: 1.14 ± 0.23; AAGGGCTTCC: 1.98 ± 0.038. Next, AAGTCCGTTT: 1.02 ± 0.044.
